Where two headings read alike, the source gives them in different places. *1 amine or outer side, *2 acyl side, *3 side chain or, on linkers, in order; H or OH if unused. Bridges are numbered along the chain shown (N, C = ends). Where no end group is shown, it is not given here. [ ]: non-standard residue; d: D form. TBMB = c1c(C[*:1])cc(C[*:3])cc1C[*:2]; hArg = N=C(N)NCCCC[C@H](N)C(=O)O; Aze = O=C(O)[C@@H]1CCN1; Sar = CNCC(=O)O
Columns and labels:
Test in all cases: enzyme inhibition assay, fluorogenic substrate Z-PheArg-AMC
[1] = target: T1, human plasma kallikrein (human, UniProt P03952 20-638)
T1 construct: Enzyme used in the Ki assays; also called human kallikrein; PK
T1 sequence (P03952 20-638 limits assumed): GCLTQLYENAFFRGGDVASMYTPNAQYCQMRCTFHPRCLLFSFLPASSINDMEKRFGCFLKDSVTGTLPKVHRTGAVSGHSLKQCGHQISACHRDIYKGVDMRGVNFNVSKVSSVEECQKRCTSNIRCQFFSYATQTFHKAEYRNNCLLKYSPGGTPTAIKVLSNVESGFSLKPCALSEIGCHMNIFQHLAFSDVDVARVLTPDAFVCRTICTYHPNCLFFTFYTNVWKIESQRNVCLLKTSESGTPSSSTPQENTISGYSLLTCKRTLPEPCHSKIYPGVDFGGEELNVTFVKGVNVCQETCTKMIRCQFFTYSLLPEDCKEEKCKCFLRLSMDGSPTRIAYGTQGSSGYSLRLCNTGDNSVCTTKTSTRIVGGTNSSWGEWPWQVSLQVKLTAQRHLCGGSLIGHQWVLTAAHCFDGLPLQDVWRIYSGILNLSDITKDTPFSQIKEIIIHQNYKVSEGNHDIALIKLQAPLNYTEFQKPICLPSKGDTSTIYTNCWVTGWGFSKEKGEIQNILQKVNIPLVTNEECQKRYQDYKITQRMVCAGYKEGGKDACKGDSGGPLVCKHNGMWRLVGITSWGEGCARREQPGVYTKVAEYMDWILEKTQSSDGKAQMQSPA
Description: (§1) Functional enzyme assays were conducted in 10 mM Tris HCl, 150 mM NaCl, 10 mM MgCl₂, 1 mM CaCl₂ and 1 mg/mL BSA (all Sigma UK) pH 7.4 at 25° C. in solid black 96 or 384 well plates. […] Release of AMC was measured using a Pherastar FS (BMG Labtech), excitation 360 nm, emission 460 nm. The rate of the linear phase of the reaction, typically 5 to 45 minutes, was calculated in MARS data analysis software (BMG labtech). The rate was then used to calculate the IC₅₀ and Kᵢ in Prism (GraphPad). A four parameter inhibition non-linear regression equation was used to calculate the IC₅₀. The One site-fit Kᵢ equation used to calculate the Kᵢ, constraining the Kᵢ to the Kₘ for the substrate which is 150 μM for the human enzyme, and 200 μM for the rat orthologue. All Kᵢ/IC₅₀ values are the mean of at least two independent experiments, and at least three for peptides with Kᵢ values lower than 1 nM. For rabbit kallikrein, between 7 to 14 pM enzyme was employed, with 33 μM substrate with a Kₘ of 50 μM.

[2] = target: T2, rat plasma kallikrein (rat, UniProt P14272 391-638)
T2 construct: domain: catalytic domain; Expressed and purified in house; also called rat kallikrein; rPK
T2 sequence (P14272 391-638 limits assumed): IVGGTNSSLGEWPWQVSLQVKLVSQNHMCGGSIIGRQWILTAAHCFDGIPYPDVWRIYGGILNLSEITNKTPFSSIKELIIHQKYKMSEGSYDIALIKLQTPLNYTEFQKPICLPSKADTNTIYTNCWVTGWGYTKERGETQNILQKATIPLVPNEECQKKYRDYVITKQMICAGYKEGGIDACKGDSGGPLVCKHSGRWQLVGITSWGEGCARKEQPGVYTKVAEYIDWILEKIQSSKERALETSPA
Description: as §1

[3] = target: T1, human plasma kallikrein; remark: listed apart in the source
Description: as §1

[4] = target: T2, rat plasma kallikrein; remark: listed apart in the source
Description: as §1

[5] = target: T3, rabbit plasma kallikrein (rabbit, UniProt G1T127 20-390; G1T127 391-629, The active enzyme is two chains, heavy and catalytic light, joined by a disulfide after cleavage at Arg390-Ile391. The letters do not carry the natural glycosylation.)
T3 construct: also called rabbit kallikrein
T3 sequence (heavy, as listed by the source limits assumed, form in doubt, chain 1 of 2): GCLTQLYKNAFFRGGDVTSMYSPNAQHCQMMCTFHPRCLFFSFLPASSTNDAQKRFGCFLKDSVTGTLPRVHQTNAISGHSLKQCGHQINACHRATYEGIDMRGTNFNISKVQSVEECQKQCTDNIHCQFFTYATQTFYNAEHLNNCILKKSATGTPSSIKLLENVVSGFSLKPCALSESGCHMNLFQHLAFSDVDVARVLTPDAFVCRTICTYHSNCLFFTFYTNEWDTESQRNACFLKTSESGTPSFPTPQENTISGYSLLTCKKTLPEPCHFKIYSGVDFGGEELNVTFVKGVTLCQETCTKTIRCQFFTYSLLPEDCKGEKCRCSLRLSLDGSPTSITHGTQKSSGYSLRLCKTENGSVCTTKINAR
T3 sequence (light, as listed by the source limits assumed, form in doubt, chain 2 of 2): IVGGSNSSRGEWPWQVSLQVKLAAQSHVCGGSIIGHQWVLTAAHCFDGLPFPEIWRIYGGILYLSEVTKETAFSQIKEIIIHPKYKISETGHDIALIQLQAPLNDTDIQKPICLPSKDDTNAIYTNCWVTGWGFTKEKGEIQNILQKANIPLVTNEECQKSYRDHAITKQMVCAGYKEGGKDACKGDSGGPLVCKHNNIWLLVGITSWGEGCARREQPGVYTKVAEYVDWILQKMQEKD
Description: as §1

[6] = target: T3, rabbit plasma kallikrein; remark: listed apart in the source
Description: as §1

Binder | Ki [1] | Ki [2] | Ki [3] | Ki [4] | Ki [5] | Ki [6]
ACKNYWNPCDLIPGPCA-NH2 (linker 2-9-16 via TBMB; N-terminus assumed; SMILES CC[C@H](C)[C@@H]1NC(=O)[C@H](CC(C)C)NC(=O)[C@H](CC(=O)O)NC(=O)[C@@H]2CSCc3cc(cc(c3)CSC[C@@H](C(=O)N[C@@H](C)C(N)=O)NC(=O)[C@@H]3CCCN3C(=O)CNC(=O)[C@@H]3CCCN3C1=O)CSC[C@H](NC(=O)[C@H](C)N)C(=O)N[C@@H](CCCCN)C(=O)N[C@@H](CC(N)=O)C(=O)N[C@@H](Cc1ccc(O)cc1)C(=O)N[C@@H](Cc1c[nH]c3ccccc13)C(=O)N[C@@H](CC(N)=O)C(=O)N1CCC[C@H]1C(=O)N2, Synthetic bicyclic peptide, 6 x 6, made on Rink amide resin) [06-254-02] | 0.5 nM | 7.6 nM |  |  |  | 
ACRNYWNPCTLINITCA-NH2 (linker 2-9-16 via TBMB, Synthetic bicyclic peptide, 6 x 6, made on Rink amide resin) [06-255] | 3.4 nM | 18.9 nM | 3.4 nM | 18.9 nM | 342 nM | 342 nM
ACNHWNPWCSVEPPVCA-NH2 (linker 2-9-16 via TBMB, Synthetic bicyclic peptide, 6 x 6, made on Rink amide resin) [06-259-01] | 2.4 nM | 10.4 nM |  |  |  | 
ACNNFPFRCVYYPDICA-NH2 (linker 2-9-16 via TBMB, Synthetic bicyclic peptide, 6 x 6, made on Rink amide resin) [06-261] | 0.4 nM | 4 nM | 0.4 nM | 4 nM | 1040 nM | 1040 nM
ACQKFESRCRVDTRYCA-NH2 (linker 2-9-16 via TBMB, Synthetic bicyclic peptide, 6 x 6, made on Rink amide resin) [06-256] | 6.6 nM | 2780 nM | 6.6 nM | 2780 nM | 1460 nM | 1460 nM
Ac-CNTWNPWCPWDAPLCA[Sar][Sar][Sar][dR][dR]-NH2 (linker 1-8-15 via TBMB; SMILES CC(=O)N[C@H]1CSCc2cc3cc(c2)CSC[C@H](NC(=O)[C@H](Cc2c[nH]c4ccccc24)NC(=O)[C@@H]2CCCN2C(=O)[C@H](CC(N)=O)NC(=O)[C@H](Cc2c[nH]c4ccccc24)NC(=O)[C@H]([C@@H](C)O)NC(=O)[C@H](CC(N)=O)NC1=O)C(=O)N1CCC[C@H]1C(=O)N[C@@H](Cc1c[nH]c2ccccc12)C(=O)N[C@@H](CC(=O)O)C(=O)N[C@@H](C)C(=O)N1CCC[C@H]1C(=O)N[C@@H](CC(C)C)C(=O)N[C@H](C(=O)N[C@@H](C)C(=O)N(C)CC(=O)N(C)CC(=O)N(C)CC(=O)N[C@H](CCCNC(=N)N)C(=O)N[C@H](CCCNC(=N)N)C(N)=O)CSC3, Synthetic bicyclic peptide with solubilising extension, made on Rink amide resin; also called Bicycle 3) [Ac-(06-259-02)-Sar3-(DArg2)] |  |  | 0.8 nM | 2.1 nM | 1450 nM | 
ACNTWNPWCGWVGGFCA-NH2 (linker 2-9-16 via TBMB, Synthetic bicyclic peptide, 6 x 6, made on Rink amide resin) [06-259] | 20.1 nM | 6.2 nM | 20.1 nM | 6.2 nM |  | 
ACNHWNPWCSADPPICA-NH2 (linker 2-9-16 via TBMB, Synthetic bicyclic peptide, 6 x 6, made on Rink amide resin) [06-259-03] | 1.4 nM | 8.2 nM |  |  |  | 
ACPLSDTLCYRRMPPCA-NH2 (linker 2-9-16 via TBMB, Synthetic bicyclic peptide, 6 x 6, made on Rink amide resin) [06-257] | 36.1 nM | 159 nM | 36.1 nM | 159 nM |  | 
Ac-CRNYWNPCTLINITC-NH2 (linker 1-8-15 via TBMB, Synthetic bicyclic peptide without the terminal alanines, made on Rink amide resin) [Ac-(06-255)] |  |  | 3.7 nM | 7.7 nM | 342 nM | 
ACPYPFRCLHENLCA-NH2 (linker 2-8-14 via TBMB, Synthetic bicyclic peptide, 5 x 5, made on Rink amide resin) [06-258] | 4.3 nM | 5.2 nM | 4.3 nM | 5.2 nM | 331 nM | 331 nM
ACKNYWNPCDLVMDTCA-NH2 (linker 2-9-16 via TBMB; N-terminus assumed; SMILES CSCC[C@@H]1NC(=O)[C@H](C(C)C)NC(=O)[C@H](CC(C)C)NC(=O)[C@H](CC(=O)O)NC(=O)[C@@H]2CSCc3cc(cc(c3)CSC[C@@H](C(=O)N[C@@H](C)C(N)=O)NC(=O)[C@H]([C@@H](C)O)NC(=O)[C@H](CC(=O)O)NC1=O)CSC[C@H](NC(=O)[C@H](C)N)C(=O)N[C@@H](CCCCN)C(=O)N[C@@H](CC(N)=O)C(=O)N[C@@H](Cc1ccc(O)cc1)C(=O)N[C@@H](Cc1c[nH]c3ccccc13)C(=O)N[C@@H](CC(N)=O)C(=O)N1CCC[C@H]1C(=O)N2, Synthetic bicyclic peptide, 6 x 6, made on Rink amide resin) [06-254-03] | 1.4 nM | 10.1 nM |  |  |  | 
Ac-CSFPYRCVYYPDIC-NH2 (linker 1-7-14 via TBMB) [Ac-(06-550)] |  |  | 0.9 nM | 9.3 nM | 610 nM | 
ACKNYWNPCDLVTISCA-NH2 (linker 2-9-16 via TBMB; N-terminus assumed; SMILES CC[C@H](C)[C@@H]1NC(=O)[C@H]([C@@H](C)O)NC(=O)[C@H](C(C)C)NC(=O)[C@H](CC(C)C)NC(=O)[C@H](CC(=O)O)NC(=O)[C@@H]2CSCc3cc(cc(c3)CSC[C@@H](C(=O)N[C@@H](C)C(N)=O)NC(=O)[C@H](CO)NC1=O)CSC[C@H](NC(=O)[C@H](C)N)C(=O)N[C@@H](CCCCN)C(=O)N[C@@H](CC(N)=O)C(=O)N[C@@H](Cc1ccc(O)cc1)C(=O)N[C@@H](Cc1c[nH]c3ccccc13)C(=O)N[C@@H](CC(N)=O)C(=O)N1CCC[C@H]1C(=O)N2, Synthetic bicyclic peptide, 6 x 6, made on Rink amide resin) [06-254] | 5.3 nM | 42.5 nM | 5.3 nM | 42.5 nM | 280 nM | 280 nM
ACNTWNPWCPWDAPLCA-NH2 (linker 2-9-16 via TBMB, Synthetic bicyclic peptide, 6 x 6, made on Rink amide resin) [06-259-02] | 2.3 nM | 0.2 nM |  |  |  | 1450 nM
ACNYWNPWCPWDAPLCA-NH2 (linker 2-9-16 via TBMB, Synthetic bicyclic peptide, 6 x 6, made on Rink amide resin) [06-259-04] | 3.4 nM | 6.7 nM |  |  |  | 
Ac-CSFPYRCVYYPDICA[Sar][Sar][Sar][dR][dR]-NH2 (linker 1-7-14 via TBMB, Synthetic bicyclic peptide, 5 x 6, made on Rink amide resin) [Ac-(06-550)-Sar3-(DArg2)] |  |  | 2.1 nM | 24 nM | 207 nM | 
Ac-CRNYWNPCTLINITCA[Sar][Sar][Sar][dR][dR]-NH2 (linker 1-8-15 via TBMB; SMILES CC[C@H](C)[C@@H]1NC(=O)[C@H](CC(C)C)NC(=O)[C@H]([C@@H](C)O)NC(=O)[C@@H]2CSCc3cc(cc(c3)CSC[C@@H](C(=O)N[C@@H](C)C(=O)N(C)CC(=O)N(C)CC(=O)N(C)CC(=O)N[C@H](CCCNC(=N)N)C(=O)N[C@H](CCCNC(=N)N)C(N)=O)NC(=O)[C@H]([C@@H](C)O)NC(=O)[C@H]([C@@H](C)CC)NC(=O)[C@H](CC(N)=O)NC1=O)CSC[C@H](NC(C)=O)C(=O)N[C@@H](CCCNC(=N)N)C(=O)N[C@@H](CC(N)=O)C(=O)N[C@@H](Cc1ccc(O)cc1)C(=O)N[C@@H](Cc1c[nH]c3ccccc13)C(=O)N[C@@H](CC(N)=O)C(=O)N1CCC[C@H]1C(=O)N2, Synthetic bicyclic peptide with solubilising extension, made on Rink amide resin) [Ac-(06-255)-Sar3-(DArg2)] |  |  | 1.2 nM | 7.4 nM | 251 nM | 
Ac-CSF[Aze]Y[hArg]CVYYPDICA[Sar][Sar][Sar][dR][dR]-NH2 (linker 1-7-14 via TBMB, Synthetic bicyclic peptide, 5 x 6, made on Rink amide resin; also called Bicycle 1) [Ac-(06-550)-Sar3-(DArg2) Aze3HArg5] |  |  | 0.4 nM | 8.2 nM | 2650 nM | 
